Assay results taken from patent US12723105 (BEIJING STARMAB BIOMED TECHNOLOGY, dated 2026).

Tests used:
Monkey serum albumin = Monkey serum albumin (Monkey); assay: BLI (Octet), cross-species albumin binding
mouse serum albumin = mouse serum albumin (mouse, UniProt P07724 25-608); assay: BLI (Octet), cross-species albumin binding
Human serum albumin = molecular target: T1, Human serum albumin (human, UniProt P02768 25-609); assay: BLI (Octet), cross-species albumin binding
T1 construct: also called HSA

[1] = molecular target: T2, CD47 natively expressed on tumor cell surface (Jurkat, HL60 cells) (human, UniProt Q08722 19-323); assay: flow cytometry on HL60 cells (express CD47 but not PD-L1)
T2 construct: whole, on cells; also called CD47 on the HL60 cell surface; CD47 on the Jurkat cell surface

Kd (Monkey serum albumin) [nM]	Kd (mouse serum albumin) [nM]	Kd (Human serum albumin) [nM]	EC50 [1] [nM]	Binder
8.08	4.57	3.18		hHS10 (VHH, also called humanized HS10; not shown: C-terminal His-tag) VHH: EVQLVESGGGLVQPGGSLRLSCAASGSTDSAYRMGWFRQAPGKEREFVSAINWSDGRTYYADSVKGRFTISRDNSKNTLYLQMNSLRAEDTAVYYCAADPDSRLYYTVPQNYDYWGQGTLVTVSS
			26	1518-HS5 (CD16F1-L1-hHS5-L1-hA09-10-3-L3-hA09-10-4-L1-hPL16-L3-hPL16) (bispecific antibody, Multi-specific single chain antibody with the 9-residue linker G4SG3S between the anti-HSA and anti-CD47 domains) EVQLVESGGGLVQPGGSLRLSCAVSGSLFSARVMGWYRQAPGKQRELVAAITSGVRTDYADSVKGRFTISRDNAKRAVYLQMNSLKPEDTAVYYCNVNLYNTGNYWGQGTQVTVSSGGGGSGGGSEVQLLESGGGLVQPGGSLRLSCAASGRTFTTHAMGWFRQAPGKEREFVSAINWGGRTTYYADSVKGRFIISRDTGANTLYLQMNSLRAEDTAVYYCASNLDTYNVRAGTTNSWGQGTQVTVSSGGGGSGGGSEVQLVESGGGLVQPGGSLRLSCAASGGGRTFSNYALGWFRQAPGKEREFVAAISRSGGNINYADSVKGRFTISRDNFKNTVYLQMSSLRAEDTAVYYCAAHYLLLPSYISTSTNMYNYWGQGTQVTVSSAAAQVQLVESGGGLVQPGGSLRLSCAASGGGRTFSNYALGWFRQAPGKEREFVAAISRSGGNINYADSVKGRFTISRDNAKNTVYLQMSSLRAEDTAVYYCAAHYLLLPSYISTSTNMYNYWGQGTQVTVSSGGGGSGGGSEVQLVESGGGLVQPGGSLRLSCAASGGTFLTYSMSWVRQAPGKEREFVSSINWSGYMTYYADSVKGRFTISRDNSKNTLYLQMNSLRAEDTAVYYCAAARTAIAAKRSSEFDYWGQGTQVTVSSAAAEVQLVESGGGLVQPGGSLRLSCAASGGTFLTYSMSWVRQAPGKEREFVSSINWSGYMTYYADSVKGRFTISRDNSKNTLYLQMNSLRAEDTAVYYCAAARTAIAAKRSSEFDYWGQGTQVTVSS
11.6		0.817		hHS5 (VHH, also called humanized HS5; not shown: C-terminal His-tag) VHH: EVQLLESGGGLVQPGGSLRLSCAASGRTFTTHAMGWFRQAPGKEREFVSAINWGGRTTYYADSVKGRFIISRDTGANTLYLQMNSLRAEDTAVYYCASNLDTYNVRAGTTNSWGQGTQVTVSS
